Ends that are not written are not given here.
Tests used:
[1] = biological target: T1, wild type proMch6 (35S-labeled, in vitro translated)
T1 chain: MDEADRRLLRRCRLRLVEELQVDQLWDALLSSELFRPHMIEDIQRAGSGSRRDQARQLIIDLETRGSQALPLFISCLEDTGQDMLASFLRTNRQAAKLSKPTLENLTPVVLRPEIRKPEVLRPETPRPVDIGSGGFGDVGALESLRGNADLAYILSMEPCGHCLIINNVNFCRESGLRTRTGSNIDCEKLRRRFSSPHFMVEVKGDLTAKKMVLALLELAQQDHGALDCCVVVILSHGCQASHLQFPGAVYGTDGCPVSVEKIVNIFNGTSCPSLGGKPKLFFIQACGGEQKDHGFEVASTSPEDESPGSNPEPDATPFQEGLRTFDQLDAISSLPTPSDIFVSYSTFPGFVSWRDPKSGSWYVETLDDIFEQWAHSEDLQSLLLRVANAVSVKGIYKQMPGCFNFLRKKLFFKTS

[2] = biological target: T2, DEVD-AMC (Asp-Glu-Val-Asp-aminomethylcoumarin)
T2 chain: DEVD

[3] = biological target: T3, YVAD-AMC (Tyr-Val-Ala-Asp-aminomethylcoumarin)
T3 chain: YVAD

[4] = biological target: T4, ZEVD-AMC (carbobenzoxy-Glu-Val-Asp-aminomethylcoumarin)
T4 chain: EVD

[5] = biological target: T5, bacterially expressed recombinant Mch6 (6His-C terminal tagged protein) (human, UniProt P55211 1-416); experiment: inhibition of the hydrolysis of 50 µM DEVD-AMC by recombinant Mch6 after 30 min preincubation with DEVD-CHO, continuous fluorometric assay
T5 construct: also called purified Mch6 protein; mammalian ced-3 homolog 6; not shown: C-terminal 6His tag from vector pET21b
T5 chain: T1 chain

B1: purified recombinant human CPP32 (protein)
chain: SGISLDNSYKMDYPEMGLCIIINNKNFHKSTGMTSRSGTDVDAANLRETFRNLKYEVRNKNDLTREEIVELMRDVSKEDHSKRSSFVCVLLSHGEEGIIFGTNGPVDLKKITNFFRGDRCRSLTGKPKLFIIQACRGTELDCGIETDSGVDDDMACHKIPVEADFLYAYSTAPGYYSWRNSKDGSWFIQSLCAMLKQYADKLEFMHILTRVNRKVATEFESFSFDATFHAKKQIPCIVSMLTKELYFYH
Q: For B1, which “processing of 35S-labeled proMch6 (Tricine-SDS-PAGE and autoradiography)” value [1] is on record?
A: The value was “CPP32 cleaves proMch6 at one site to generate two cleavage products of approximately 37 kDa or p37 and approximately 10 kDa or p10”.

B2: bacterially expressed recombinant Mch6 (6His-C terminal tagged protein) (protein)
chain: T1 chain
Q: Which Km (DEVD-AMC) [2] does the source give for B2 here?
A: The Km (DEVD-AMC) was 10 µM.

Q: What about the Vmax/Km (DEVD-AMC) [2] of the same binder?
A: Its Vmax/Km (DEVD-AMC) is 100.

Q: And the Vmax/Km (YVAD-AMC) [3]?
A: Its Vmax/Km (YVAD-AMC) is < 0.1.

Q: And the Vmax/Km (ZEVD-AMC) [4]?
A: Its Vmax/Km (ZEVD-AMC) is 2.7.

B3: DEVD-CHO (Asp-Glu-Val-Asp-aldehyde) (peptide)
peptide: DEVD-aldehyde
notes: Tetrapeptide aldehyde substrate analog; also called DEVD-CHO peptide
Q: For B3, which Ki [5] is on record?
A: The Ki was < 10 nM.

Reference: patent publication US6566505 (THOMAS JEFFERSON UNIVERSITY, dated 2003)
